Experimental data taken from the DeepSol protein solubility set.

Assay: soluble on expression in E. coli; label from the status in PepcDB or PDB records

| Sequence | soluble on expression in E. coli |
| --- | --- |
| AGFMVPTTNTAGWGRAMAGGSLFPNDPSAAFNNPAAMAFIDKRIAQLTVNYADIDIKYNGDAYDYQGNPMTGGYQDGPGTPELGTNDGGQAGFGAWLPTGFLVVPINDRFAFGLSQVVPMGMRSTWDPNWKGRDFAVDTKIETIGLTGSLSFKVNDNFSLGAGVIIQRTSGFVSQNLDLYASAANSPGMGGIPFPASNSSALMRVKVDNTSPGFFAGAVWKPTDRDTLGFAYHAKIRNKLKGHYNLYDHDGGLTEGAIEGGTPGLAYPGLDLRMGASASARLDIPAYASLDWVHQFNDRLSLGASATWTEWSSFQDLTLKSHGNTIVSIPYTYRNTWTLAVGGDYKVTDQWTMRAGVAYDQTPTHNATRDPRIPDGDRYFASLGAGYRFQSMPELSIDAAYSRQFVKEVPLKTVNQDRLGGGRLDGRATSKGQVFSLSATYDFHHHHHHHH | soluble |
| MGSDKIHHHHHHMMAYLVFLGPPGAGKGTYAKRLQEITGIPHISTGDIFRDIVKKENDELGKKIKEIMERGELVPDELVNEVVKRRLSEKDCERGFILDGYPRTVAQAEFLDGFLKTQNKELTAAVLFEVPEEVVVQRLTARRICPKCGRIYNLISLPPKEDELCDDCKVKLVQREDDKEETVRHRYKVYLEKTQPVIDYYDKKGILKRVDGTIGIDNVIAEVLKIIGWSDK | not soluble |
| MGSDKIHHHHHHMGIEAAVGAWNNTPRGDFAYKGTNLDIKDELKYDDETRLMGRVKIETPLFFPNLYLMATPMEFDGQGSKSGTFQFGDVTFDGTVPFTSELKLDHYDLGLYWGIPLLKTATAGVVNVDLGIDARLIDLKAEVVQGGVTESKSLVVGVPMIYAGVQVRPLSWFAAEGEARGMAYGDNRYYDLIARGKLILFDHLFAAAGYRYEKIEIDESDIKADVDFGGPFAEVGFQF | not soluble |
| MSARILVVDDIEANVRLLEAKLTAEYYEVSTAMDGPTALAMAARDLPDIILLDVMMPGMDGFTVCRKLKDDPTTRHIPVVLITALDGRGDRIQGLESGASDFLTKPIDDVMLFARVRSLTRFKLVIDELRQREASGRRMGVIAGAAARLDGLGGRVLIVDDNERQAQRVAAELGVEHRPVIESDPEKAKISAGGPVDLVIVNAAAKNFDGLRFTAALRSEERTRQLPVLAMVDPDDRGRMVKALEIGVNDILSRPIDPQELSARVKTQIQRKRYTDYLRNNLDHSLELAVTDQLTGLHNRRYMTGQLDSLVKRATLGGDPVSALLIDIDFFKKINDTFGHDIGDEVLREFALRLASNVRAIDLPCRYGGEEFVVIMPDTALADALRIAERIRMHVSGSPFTVAHGREMLNVTISIGVSATAGEGDTPEALLKRADEGVYQAKASGRNAVVGKAAHHHHH | soluble |
| MAHHHHHHMYVFRFHISSFHSFLVNFLQPSRGVGEPSRLLDHLETHPSYMRRVTSTAVHRTVSSVLSPALLPSFNGTLLLSVCFASCSAAPVRNLYKRLGLDHKATSEEVKAAYRQRALECHPDVVDDNRKAQAEVDFRAVSEAYDVLIDPQKRKEHDKALGLERTVPPAKKQQEGEGVGCDSKGSFNRGVTRPRNRKPFVRGDADRNFREAFHGMSLDQVLFRERLRQRRMQKQMEEKAKEGDDGSPAGREESIRRVAAAAAERFAEKVRRQYGPGMLRHARVYTSLSRDPQPPPSDYMPFRPFHGWTVPNGVRTPPEPTLGPTAKVEDVKDVQLAEPAVGDASHQRKLPKHFPVVQAPDGSSLLREEAIACMERERRLPHNMGKLYSYHRPY | not soluble |
| MAHHHHHHMLLGSFADFSVNGASTVDMPLAPSLEYVARMLRELPSVLHAEQWPTQFVCDSNAPLSGSGTELRNAEAITSSSSSVLERTLLGISPLSGTDAAVSQFLERLGGATTSLALRSLFDLCHADVWNLLGVAATSPISRLAALEKLAAAANGSASAPGPCRPVLDAETLEFKDILVWAWNRQYGCVGLRRLFFEMQVLFYRYAMNAQATSKQSRAGNGATLRDVCELWAVWRLSLQKWSAAFLAKLGTHEQTADVLDASTLRADACDLMRQHAIAVSGLAEVQRMALRVITKLQTVDAKGWFAVPAFDLVNVDFTSVRYWISSPVFARKSKREAYRSLCRTLERMVDSCVQKYGPTHAFSDVITTVRQQLVDVARAEGLL | not soluble |
| MTQKIEQSQRQERVAAWNRRTECDLAAFQNSPKQTYQAEKARDRKLCANLEEAIRRSGLQDGMTVSFHHAFRGGDLTVNMVMDVIAKMGFKNLTLASSSLSDCHAPLVEHIRQGVVTRIYTSGLRGPLAEEISRGLLAEPVQIHSHGGRVHLVQSGELNIDVAFLGVPSCDEFGNANGYTGKACCGSLGYAMVDADNAKQVVMLTEELLPYPHNPASIEQDQVDLIVKVNRVGDAAKIGAGTTRMTTNPRELLIARSAADVIVNSGYFKEGFSMQTGTGGASLAVTRFLEDKMRSRDIRADFALGGITATMVDLHEKGLIRKLLDVQSFDSHAAQSLARNPNHIEISANQYANWGSKGASVDRLDVVVLSALEIDRQFNVNVLTGSDGVLRGASGGHCDTAIASALSIIVAPLVRGRIPTLVDNVLTCITPGSSVDILVTDHGIAVNPARPELAERLQEAGIKVVSIEWLRERARLLTGEPQPIEFTDRVVAVVRYRDGSVIDVVHQVKELEHHHHHH | soluble |
| MAKKVAICTLLYSRDYLPGALTLAYQLQKLLKHAVVEDEITLCLLIEKKLFGDEFKPQEIALIRSLFKEIIIIEPLKDQEKSIEKNKANLELLKRPELSHTLLKARLWELVQFDQVLFLDADTLPLNKEFFEILRLYPEQTRFQIAAVPDIGWPDMFNTGVLLLIPDLDMATSLQDFLIKTVSIDGADQGIFNQFFNPICNYSKEVLHKVSPLMEWIRLPFTYNVTMPNYGYQSSPAMNFFQQHIRLIHFIGTFKPWSRNTTDYDDHYYQLWRSTQRELYSECHLSNYFTHLQLGNIETETNFYHEPPCLQDLLNHGKRENQKHVDLDITSVDRNASQKSTAEKHDIEKPTSKPQSAFKFDWESTDYLDRVQRAFPKPDT | soluble |
| MSLSRVEETGLGFVGTFESGFTQGTVGVGVDAIGMLGLKLDSGKGRAGTGLFPTGSDGRSQDDYSKGGGAVKFRISDTVLKVGDQFTALPVFATDDSRLLPEIAQGTLITSNEIEGLTLHAGHFTSLTAQEQTNRDSFGLKEANVVGGTYAFTDNLSTSLYYSKVEDYWRKYYANVNWALPISDNQGLVFDFNIYDTKSEGSAEYRAFDGDKLDNRAFSLSGAYNIGAHTFTLAYQKVTGDGDYGYGIDGGGTIFLANSVARSDFNAEDEKSWQARYDLNFAEYGIPGLTFMTRYVRGSDANVAGTSNGKEWERDVDIKYVLQEGPAKDLSFRVRQATYRSSDGVYYDSPSIDELRLIVEYPLNILEGHHHHHH | soluble |
| MAHHHHHHMHLIYLKILFFSLLLDTFISSHTNIPRINNVTPKNVAINISPVVPIPDVITLDYIKENLEQIRLIKDIIIKGKLKKLKVLKQKCKKNKKDKEIKNEIENLEREIMDTRKLCNNYIKNEIKEIKSLKDQIVKDKIEKDRWKKDLLIDYELKRLMYKPDIERLKQLNEEYKKEELRVAKLKDNMFKIYQFILYLIPNTIYYTIEFINNIPEVELSLPKFLKKKKKKKVNHFSHYGVPYMK | soluble |
| MSIESSATPTTPNAEALQLNSTEVRILGCLIEKQATNPETYPLTLNALVIACNQKTSRDPVMNLTQGQVGQSLRALEGRGLTRLVMGSRADRWEHKVDKGLELVPAQVILTGLLLLRGPQTVSELLTRSNRMHDFEDSEQVVHQLERLIARGLATLVPRQSGQREDRYMHLIGDPEDLQDLLAARQQAPERGNAASPAATQRLDELEARIAALEERLARLE | not soluble |
| MSLSLFQAILTSMEPREGGEKVFPSDLMIARKTKTGIIYPVFLSDDNIDYARAVISVFTLNTGKKKEVIENNLKEIELKFQNAKIIRALSLIMMRKSIFVPPVNIDAQALREYIFSMARIPPINSNEREMILKSAAESFNIDYIDIENAIYADKDSESILERPYNTDEGKLIREYNLEQLETVLLKCTELNISNASDWHFVITMIRRLGLLYEIKNDGDKIISVNITGPMALFENTERYGSKFSMLIRSIYKMNEWSLTASIKVKDFSGDKNIYTLKLSDSAKFFLPPGTIKPEHLPEHVSRGYPIIINNKFYFPDYIIDLDERIYVSINSDEKPDNLNWINVYILSDRDKKKPGSIAFYNDMDWDELFNLISKKRNLSSEIDNYSIDEIKKKLDQIYPDSQGMIDYLESQGLIPLRVLPELGYKIKWKNLDIIIEKAEGHHHHHH | not soluble |
| MKSLEEILQYNEKFVEEKKYEEFVAGKFPNKKMVIISCMDTRLVELLPKAMNMRNGDVKIIKVAGAVISHPFGSIMRSILVAVYELGADEVCVVGHHDCGMAKIQASSTIEKMKERGITEEKLDMLRYSGIDLEQFLRGFSSVEESVEHSVSVLRNHPLLPEEVPVHGLVIDPDTGKLDLVVNGYDN | not soluble |
| MAMITGGELVVRTLIKAGVEHLFGLHGSHIDTIFQACLDHDVPIIDTRHEAAAGHAAEGYARAGAKLGVALVTAGGGFTNAVTPIANAWLDRTPVLFLTGSGALRDDETNTLQAGIDQVAMAAPITKWAHRVMATEHIPRLVMQAIRAALSAPRGPVLLDLPWDILMNQIDEDSVIIPDLVLSAHGARPDPADLDQALALLRKAERPVIVLGSEASRTARKTALSAFVAATGVPVFADYEGLSMLSGLPDAMRGGLVQNLYSFAKADAAPDLVLMLGARFGLNTGHGSGQLIPHSAQVIQVDPDACELGRLQGIALGIVADVGGTIEALAQATAQDAAWPDRGDWCAKVTDLAQERYASIAAKSSSEHALHPFHASQVIAKHVDAGVTVVADGALTYLWLSEVMSRVKPGGFLCHGYLGSMGVGFGTALGAQVADLEAGRRTILVTGDGSVGYSIGEFDTLVRKQLPLIVIIMNNQSWGATLHFQQLAVGPNRVTGTRLENGSYHGVAAAFGADGYHVDSVESFSAALAQALAHNRPACINVAVALDPIPPEELILIGMDPFGSHHHHHH | soluble |
| MSKLSFRARALDASKPLPVFRCEDLPDLHEYASINRAVPQMPTGMEKEEESVMLRFFSLYFYRLYPPSTRSLLCASLHKMAAMFLPDGNGDGAHTSPLVIPHSGWLVGLIRISL | not soluble |
| MESLYTSTLSEISEEEIVKGRIVSISNKDVTIDVGFKSEGIVSLLEFRDDDEIKVGDDVEVYLENIEDKMGQLILSKRKADVLRIWDKIYDSIENDTIINGKIINRVKGGMTVSLSGVEAFLPGSQIDVKPVRDFDALVGKTMDFRVVKINPVTQNIVVSHKVILEEEYAAKREEMLANIKVGMVLEGTVKNITDFGIFVDLGGLDGLVHITDITWGRINHPSEVVELDQPIKVVVVGFDENTKRVSLGMKQLEAHPWENIEIKYPVGIKATGRVVSITDYGAFVEIEKGIEGLVHISEMSWTQHIKHPSQFVSLNQEVEVVILNIDKEHTKLSLSMKRVSEDPWIALSEKYVEGSLHKGTVSNITDFGVFVELEPGVDGLVHISDLSWTKKIRHPSELVKKGQELEVKVLKFDVNARRIALGHKQINNDPWGEFEQKYAVGAECTGAISQIIEKGVIVILPGEVDGFVPVSHLLQGGVKDIHSSFKIGDELPLRVIEFDKENKRIILSALEYFKDKSKEEIEAYLQAHPNEKKEIEAASAELEPQPKGR | not soluble |
| MGSDKIHHHHHHMAYVPNPVNIGVVYTENAAVLVDSGLDESVPRKISRLLQKPPLYLINTHSHADHCGGNAFLKKRFSTRVFAPKMEKEIIENTVFEPFYLYGAYPPNELRNKFLMAEPSAVDEVIEEGTITIESVDLEIVPLSGHSTNQIGVAVDGVLFCADAVFSEETLRKHRIFVIYNVEKFLETLDFLEKTSYSYYVPSHGEVTRDIGELVEKNRKAVENIINAVLEITVNPLSTDELMKQLFDRFEITLENLTQYILYRSTVHAYLSFLLDRKEIEREFRNNVLVWRRC | not soluble |
| MSLVFDTHLHTLFSTDSKMNIEEAIDAGEKKNLGIIITEHIDLNYPVKGEFVFDIDKYFKEYNKYRSNKVLLGVEIGMGEEIKEQNKSINDKYEFDYVLGSIHLLNGLDLYEKTIYKSSPKKEVFEMYFKTMLACLRCHEYIDSLAHIDYISRYAAYHDGEIYYNEYSDYIDEVLKFIVDREIVIEINTRRLNKKEVCENLMPIYKRYSELGGRFVTIGSDSHYKDSIGLNFKNALKMAENCNLKPVFFEKRLMKYAEGHHHHHH | soluble |
